We go through 4 molecules from patent US20250213710A1 (PHENOMIC AI, published 2025).

Assay [1] deals with integrin αV on ovarian cancer cells (SKOV3) (human) (UniProt P06756). Nature of the assay: cell-based or functional assay.
Assay [2] concerns the target integrin β1 on ovarian cancer cells (SKOV3) (human) (UniProt P05556). Put plainly: cell-based or functional assay.
Assay [3] addresses recombinant human CTHRC1 (Collagen Triple Helix Repeat Containing 1) (human) (UniProt Q96CG8). Put plainly: cell-based or functional assay.
The target is the same in assay [4]. Nature of the assay: binding EC50 on huCTHRC1 (assay not named).
Assay [5] deals with T1, rat CTHRC1 (rat, UniProt Q8CG08 33-245, limits assumed). Put plainly: binding EC50 on rat CTHRC1 (assay not named).
T1 sequence (Q8CG08 33-245 limits assumed): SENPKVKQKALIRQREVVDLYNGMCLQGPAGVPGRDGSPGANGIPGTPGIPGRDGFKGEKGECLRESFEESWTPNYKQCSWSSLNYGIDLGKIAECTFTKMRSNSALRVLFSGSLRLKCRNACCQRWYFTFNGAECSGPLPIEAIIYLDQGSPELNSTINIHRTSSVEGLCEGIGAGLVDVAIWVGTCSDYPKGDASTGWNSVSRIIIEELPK
In assay [6] the target is T2, mouse CTHRC1 (mouse, UniProt Q9D1D6 33-245, limits assumed).
T2 construct: also called muCTHRC1
T2 sequence (Q9D1D6 33-245 limits assumed): as the sequence (Q8CG08 33-245 limits assumed) above
Nature of the assay: binding EC50 on muCTHRC1 (assay not named).

Assay [7] addresses T2, mouse CTHRC1. Nature of the assay: assay not named (Table 2 EC50 columns show n/a).
Assay [8] addresses T1, rat CTHRC1. Put plainly: assay not named (Table 2 EC50 columns show n/a).

Chain of recombinant human CTHRC1 (Collagen Triple Helix Repeat Containing 1) (human) (Q96CG8 31-243): as the sequence (Q8CG08 33-245 limits assumed) above, with N3I, V6G, L11Q, I12L, L155M counted along it
Chain of integrin β1 on ovarian cancer cells (SKOV3) (human) (P05556 21-798): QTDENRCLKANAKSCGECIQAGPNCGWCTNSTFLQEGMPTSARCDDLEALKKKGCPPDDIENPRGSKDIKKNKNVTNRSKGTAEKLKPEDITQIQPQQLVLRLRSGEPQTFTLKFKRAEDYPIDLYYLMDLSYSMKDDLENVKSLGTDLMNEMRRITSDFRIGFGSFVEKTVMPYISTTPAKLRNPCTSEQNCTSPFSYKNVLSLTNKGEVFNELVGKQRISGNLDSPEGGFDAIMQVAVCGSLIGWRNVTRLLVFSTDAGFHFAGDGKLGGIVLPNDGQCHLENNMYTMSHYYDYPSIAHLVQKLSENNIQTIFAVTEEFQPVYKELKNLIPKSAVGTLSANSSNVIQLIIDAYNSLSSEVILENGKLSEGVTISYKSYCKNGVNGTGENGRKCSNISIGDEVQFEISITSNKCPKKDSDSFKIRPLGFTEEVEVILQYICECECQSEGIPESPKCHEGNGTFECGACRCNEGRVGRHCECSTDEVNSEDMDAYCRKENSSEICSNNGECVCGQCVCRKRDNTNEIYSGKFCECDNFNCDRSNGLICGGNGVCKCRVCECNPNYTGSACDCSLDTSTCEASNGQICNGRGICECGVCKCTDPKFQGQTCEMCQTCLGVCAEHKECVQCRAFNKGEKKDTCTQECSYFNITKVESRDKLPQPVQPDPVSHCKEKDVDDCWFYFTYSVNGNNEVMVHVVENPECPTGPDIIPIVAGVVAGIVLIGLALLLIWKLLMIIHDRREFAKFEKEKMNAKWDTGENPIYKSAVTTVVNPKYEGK
Chain of integrin αV on ovarian cancer cells (SKOV3) (human) (P06756 31-1048): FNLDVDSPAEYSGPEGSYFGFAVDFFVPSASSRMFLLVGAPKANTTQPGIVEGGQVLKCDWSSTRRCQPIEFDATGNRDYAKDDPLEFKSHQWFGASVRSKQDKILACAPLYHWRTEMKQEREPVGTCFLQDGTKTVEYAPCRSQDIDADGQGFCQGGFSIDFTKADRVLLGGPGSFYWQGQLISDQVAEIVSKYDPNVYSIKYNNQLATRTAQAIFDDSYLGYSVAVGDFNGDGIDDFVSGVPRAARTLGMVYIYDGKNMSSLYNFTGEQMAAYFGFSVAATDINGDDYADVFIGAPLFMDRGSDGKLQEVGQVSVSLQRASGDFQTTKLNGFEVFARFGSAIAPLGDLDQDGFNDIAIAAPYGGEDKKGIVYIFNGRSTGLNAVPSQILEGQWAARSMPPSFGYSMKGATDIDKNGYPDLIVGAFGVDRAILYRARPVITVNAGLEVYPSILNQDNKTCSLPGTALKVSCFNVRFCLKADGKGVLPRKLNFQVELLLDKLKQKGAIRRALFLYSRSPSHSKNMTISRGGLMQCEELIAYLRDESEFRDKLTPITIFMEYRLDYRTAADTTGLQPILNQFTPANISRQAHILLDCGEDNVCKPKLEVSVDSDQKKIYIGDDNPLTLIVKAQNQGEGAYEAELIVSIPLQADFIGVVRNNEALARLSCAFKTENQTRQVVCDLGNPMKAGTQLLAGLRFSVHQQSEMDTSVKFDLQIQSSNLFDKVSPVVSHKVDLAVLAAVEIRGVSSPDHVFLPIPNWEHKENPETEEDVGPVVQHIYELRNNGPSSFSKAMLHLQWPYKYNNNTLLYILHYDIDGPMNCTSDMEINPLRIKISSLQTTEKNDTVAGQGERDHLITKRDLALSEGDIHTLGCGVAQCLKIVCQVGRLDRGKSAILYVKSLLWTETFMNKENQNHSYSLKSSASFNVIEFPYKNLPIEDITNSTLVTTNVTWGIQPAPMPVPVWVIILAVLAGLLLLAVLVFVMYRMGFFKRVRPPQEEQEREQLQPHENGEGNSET

Regarding “recombinant human CTHRC1 (Collagen Triple Helix Repeat Containing 1) (from UniProt Q96CG8 31-243)”, in assay [1], the cell adhesion of ovarian cancer cells to CTHRC1 after 1 hour with 100 nM integrin αV antibody turned out to be 2 fold; the cell adhesion of ovarian cancer cells to CTHRC1 after 1 hour with a combination of integrin β1 antibody and integrin αV antibody came to 2 fold; the decrease in cell adhesion of ovarian cancer cells to CTHRC1 after 1 hour with 100 nM integrin αV antibody came out at 40%. Further, in assay [2], the cell adhesion of ovarian cancer cells to CTHRC1 after 1 hour with 100 nM integrin β1 antibody stood at 2 fold; the cell adhesion of ovarian cancer cells to CTHRC1 after 1 hour with a combination of integrin β1 antibody and integrin αV antibody came to 2 fold; the decrease in cell adhesion of ovarian cancer cells to CTHRC1 after 1 hour with 100 nM integrin β1 antibody turned out to be 75%.

B1: CTHRC1S-M5 (AB987) (antibody, V domains shown)
VH: EVQLVESGGGLVTPGGSLRLSCAASGFTFSTYSMNWVRQAPGKGLEWVSSISGSSGHIYYADSVRGRFTISRDNAKNSLYLQMNSLRAEDTAVYYCASMHYYYYLDVWGKGTTVTVSS
VL: QAVVTQESALTTSPGETVTLTCRSSTGTVTTSNYVTWVQEKPDHLFTGLIGATNNRAPGVPARFSGSLIGDKAALTITGAQTEDEAIYFCALWYSNHWVFGGGTKLTVL
notes: Monoclonal antibody purified from a hybridoma of a humanized transgenic mouse immunized with rhCTHRC1; also called CTHRCIS-M5; anti-CTHRC1 clone M5
A word on the EC50: it is the midpoint of the concentration-response curve. Take B1: in assay [3], the blocking of cell adhesion to CTHRC1 (cell adhesion assay) is above 50%. For the same molecule, the EC50 in assay [4] turned out to be 1850 pM; with rat CTHRC1 [5], 1730 pM; with mouse CTHRC1 [6], 260 pM.

B2: CTHRC1S-M14 (AB991) (antibody, V domains shown)
VH: EVQVVESGGGLVQPGGSLRLSCAASRFTFSNYWMSWVRQAPGRGLEWVANIKQDGSEKYYVDSVKGRFTISRDNAKNSLYLQMNSLRAEDTAVYYCAREGGYCSDTRCFFYMDVWGKGTTVTVSS
VL: DIQMTQSPSTLSASVGDRVTITCRASQSIISWLAWYQQKPGKAPKLLIYKASSLEGGVPSRFSGSGSGTDFTLTISSLQPDDFATYYCQQYNSYSRTFGQGTTVEIK
notes: Monoclonal antibody purified from a hybridoma of a humanized transgenic mouse; also called anti-CTHRC1 clone M14
Turning to B2, the EC50 stood at 50 pM in assay [4], 50 pM with rat CTHRC1 [5] and 940 pM with mouse CTHRC1 [6].

B3: CTHRC1S-M11 (AB989) (antibody, V domains shown)
VH: QVTLRESGPALVKPTQTLTLTCTFSGFSLSTNVMCVSWIRQPPGKALEWLALIDWDDDKYYSTSLKTRLTISKDTSKNQVVLTMTNMDPVDTATYYCARTGITGTHYYYYYMDVWGKGTTVTVSS
VL: AIQMTQSPSSLSASVGDRVTITCRASQGIRNDLGWYQQKPGKAPKLLIYAASSLQSGVPSRFSGSGFGTDFTLTISSLQPEDFATYYCLQDYNYPWTFGQGTKVEIK
notes: Monoclonal antibody purified from a hybridoma of a humanized transgenic mouse; also called CTHRCIS-M11
Turning to B3, the blocking of cell adhesion to CTHRC1 (cell adhesion assay) in assay [3] was above 50%. In addition, the EC50 in assay [4] was 9760 pM. Moreover, the binding result with mouse CTHRC1 [7] and with rat CTHRC1 [8] was “no binding” throughout.
